Laboratory results taken from patent US10941182 (Amgen, dated 2021).
Non-standard residues stand in square brackets, D forms with d. Primed or numbered codes have the meaning given here. No end group written: not given here. Oic = O=C(O)[C@@H]1C[C@@H]2CCCC[C@@H]2N1; Phe(4-Cl) = N[C@@H](Cc1ccc(Cl)cc1)C(=O)O; dPhe(4-Cl) = N[C@H](Cc1ccc(Cl)cc1)C(=O)O; d1Nal = N[C@H](Cc1cccc2ccccc12)C(=O)O; d2Nal = N[C@H](Cc1ccc2ccccc2c1)C(=O)O; NMeR = CN[C@@H](CCCNC(=N)N)C(=O)O; hArg = N=C(N)NCCCC[C@H](N)C(=O)O; β3hR = N=C(N)NCCC[C@H](N)CC(=O)O; Cha = N[C@@H](CC1CCCCC1)C(=O)O; β3hQ = NC(=O)CC[C@H](N)CC(=O)O; β3hN = NC(=O)C[C@H](N)CC(=O)O; β3hL = CC(C)C[C@H](N)CC(=O)O; NMeV = CN[C@H](C(=O)O)C(C)C; β3hK = NCCCC[C@H](N)CC(=O)O; β3hP = O=C(O)C[C@@H]1CCCN1; β3hS = N[C@@H](CO)CC(=O)O; Nle = CCCC[C@H](N)C(=O)O; Orn = NCCC[C@H](N)C(=O)O; Pip′ = not defined here; BPhe = β-phenylalanine; Aib = CC(C)(N)C(=O)O; BLeu = β-leucine; βAla = NCCC(=O)O; BLys = β-lysine; Sar = CNCC(=O)O

T1: rat APJ receptor (rat, UniProt Q9JHG3 1-377)
T1 sequence (looked up): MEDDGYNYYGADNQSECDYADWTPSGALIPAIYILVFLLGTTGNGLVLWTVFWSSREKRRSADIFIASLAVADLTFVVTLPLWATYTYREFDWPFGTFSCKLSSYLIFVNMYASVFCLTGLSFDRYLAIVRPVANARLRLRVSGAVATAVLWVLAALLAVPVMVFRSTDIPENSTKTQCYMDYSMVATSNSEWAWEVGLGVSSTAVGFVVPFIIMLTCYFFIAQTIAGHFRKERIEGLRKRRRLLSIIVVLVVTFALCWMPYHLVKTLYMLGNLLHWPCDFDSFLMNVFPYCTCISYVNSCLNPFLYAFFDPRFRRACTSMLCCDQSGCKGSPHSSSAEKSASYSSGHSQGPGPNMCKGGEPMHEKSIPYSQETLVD

T2: human APJ receptor (human, UniProt P35414 1-380)
T2 sequence (looked up): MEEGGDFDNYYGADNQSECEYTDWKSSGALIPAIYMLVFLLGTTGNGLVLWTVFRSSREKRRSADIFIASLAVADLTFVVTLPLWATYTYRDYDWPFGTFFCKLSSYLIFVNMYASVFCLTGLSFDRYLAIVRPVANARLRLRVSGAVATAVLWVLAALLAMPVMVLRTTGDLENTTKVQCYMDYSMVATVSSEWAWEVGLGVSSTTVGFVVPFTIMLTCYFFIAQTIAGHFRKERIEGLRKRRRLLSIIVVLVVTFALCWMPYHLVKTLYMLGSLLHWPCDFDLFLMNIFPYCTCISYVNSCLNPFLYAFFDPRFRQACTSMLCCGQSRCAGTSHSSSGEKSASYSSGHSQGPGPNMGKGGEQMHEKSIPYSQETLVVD


Assays:
rat APJ receptor = target: T1, rat APJ receptor; assay: cell-based or functional assay
human APJ receptor = target: T2, human APJ receptor; assay: cell-based or functional assay

Binder	EC50 Rat APJ Receptor (rat APJ receptor)	EC50 Human APJ Receptor (human APJ receptor)
[Orn]F[hArg][hArg]Q[β3hR]P[hArg][Cha]SHKG[Oic][Nle]P[Phe(4-Cl)] [apelin polypeptide SEQ ID NO: 693]	0.505 nM	0.229 nM
[Orn]F[hArg][hArg]Q[hArg]P[hArg][Cha]SHKG[βAla][Nle]P[Phe(4-Cl)] [apelin polypeptide SEQ ID NO: 705]	11.1 nM	3.48 nM
[Orn]F[hArg][hArg]Q[hArg]P[hArg][Cha]SHKG[β3hP][Nle]P[Phe(4-Cl)] [apelin polypeptide SEQ ID NO: 706]	4.39 nM	1.99 nM
[Orn]F[hArg][hArg]Q[hArg]P[hArg][Cha][βAla]HKG[Oic][Nle]P[Phe(4-Cl)] [apelin polypeptide SEQ ID NO: 699]	0.603 nM	0.44 nM
[Orn]F[hArg][hArg]Q[hArg][Pip′][hArg][Cha]SHKG[Oic][Nle]P[Phe(4-Cl)] [apelin polypeptide SEQ ID NO: 695]	0.384 nM	0.313 nM
[Orn]F[hArg][hArg]Q[hArg]P[hArg][Cha]SHKG[Oic][Nle][d1Nal] [apelin polypeptide SEQ ID NO: 712]	0.821 nM	0.654 nM
Ac-[hArg]Q[dR]P[NMeR][Cha]SHKG[Oic][Nle]P[dPhe(4-Cl)]-OH [apelin polypeptide SEQ ID NO: 24]	134 nM	7.87 nM
[Orn]F[hArg][hArg]Q[hArg]P[hArg][β3hL]SHKG[Oic][Nle]P[Phe(4-Cl)] [apelin polypeptide SEQ ID NO: 697]	0.495 nM	0.225 nM
[Orn]F[hArg][hArg]Q[hArg]P[hArg][Cha]SHK[Aib][Oic][Nle]P[Phe(4-Cl)] [apelin polypeptide SEQ ID NO: 681]	1.3 nM	0.723 nM
[Orn]F[hArg][hArg]Q[hArg]P[hArg][Cha]SH[BLys]G[Oic][Nle]P[Phe(4-Cl)] [apelin polypeptide SEQ ID NO: 702]	1.49 nM	0.33 nM
[Orn]F[hArg][hArg]Q[hArg]P[hArg][Cha]SHKG[Sar][Nle]P[Phe(4-Cl)] [apelin polypeptide SEQ ID NO: 683]	0.926 nM	0.379 nM
[Orn]F[hArg][hArg]Q[hArg]P[hArg][Cha]SHKG[Aib][Nle]P[Phe(4-Cl)] [apelin polypeptide SEQ ID NO: 682]	7.98 nM	1.53 nM
[Orn]F[hArg][hArg]Q[hArg]P[hArg][Cha]SHK[βAla][Oic][Nle]P[Phe(4-Cl)] [apelin polypeptide SEQ ID NO: 704]	2.86 nM	0.963 nM
[Orn][BPhe][hArg][hArg]Q[hArg]P[hArg][Cha]SHKG[Oic][Nle]P[Phe(4-Cl)] [apelin polypeptide SEQ ID NO: 687]	0.175 nM	0.0918 nM
Ac-[Orn]F[hArg][hArg][BLeu][hArg]P[hArg][Cha]SHKG[Oic][Nle]P[Phe(4-Cl)]-OH [apelin polypeptide SEQ ID NO: 29]	0.301 nM	0.116 nM
[Orn]F[hArg][β3hR]Q[hArg]P[hArg][Cha]SHKG[Oic][Nle]P[Phe(4-Cl)] [apelin polypeptide SEQ ID NO: 689]	0.349 nM	0.114 nM
[Orn]F[hArg][hArg]Q[hArg]P[hArg][Cha]S[βAla]KG[Oic][Nle]P[Phe(4-Cl)] [apelin polypeptide SEQ ID NO: 700]	3.11 nM	0.949 nM
[Orn]F[hArg][hArg]Q[hArg]P[hArg][Cha]S[NMeV]KG[Oic][Nle]P[Phe(4-Cl)] [apelin polypeptide SEQ ID NO: 679]	33 nM	3.63 nM

The remaining lines, values ahead:

EC50 Rat APJ Receptor (rat APJ receptor)	EC50 Human APJ Receptor (human APJ receptor)	Binder
0.351 nM	0.229 nM	[Orn]F[hArg][hArg]Q[hArg]P[hArg][Cha]SHKG[Oic][Nle][Pip′][Phe(4-Cl)] [apelin polypeptide SEQ ID NO: 711]
0.3 nM	0.261 nM	[Orn]F[hArg][hArg]Q[hArg]P[β3hR][Cha]SHKG[Oic][Nle]P[Phe(4-Cl)] [apelin polypeptide SEQ ID NO: 696]
0.424 nM	0.453 nM	[Orn]F[hArg][hArg][β3hN][hArg]P[hArg][Cha]SHKG[Oic][Nle]P[Phe(4-Cl)] [apelin polypeptide SEQ ID NO: 691]
53.7 nM	1.74 nM	Ac-[hArg]Q[dR]P[NMeR][Cha]SHKG[Oic][Nle][d1Nal]-OH (SMILES CCCC[C@H](NC(=O)[C@@H]1C[C@@H]2CCCC[C@@H]2N1C(=O)CNC(=O)[C@H](CCCCN)NC(=O)[C@H](Cc1c[nH]cn1)NC(=O)[C@H](CO)NC(=O)[C@H](CC1CCCCC1)NC(=O)[C@H](CCCNC(=N)N)N(C)C(=O)[C@@H]1CCCN1C(=O)[C@@H](CCCNC(=N)N)NC(=O)[C@H](CCC(N)=O)NC(=O)[C@H](CCCCNC(=N)N)NC(C)=O)C(=O)N[C@H](Cc1cccc2ccccc12)C(=O)O) [apelin polypeptide SEQ ID NO: 25]
0.734 nM	0.539 nM	[Orn]F[hArg][hArg]Q[hArg]P[hArg][Cha][β3hS]HKG[Oic][Nle]P[Phe(4-Cl)] [apelin polypeptide SEQ ID NO: 698]
32.2 nM	0.384 nM	Ac-[hArg]Q[dR]P[NMeR][Cha]SHKG[Oic][Nle]P[Phe(4-Cl)]-OH [apelin polypeptide SEQ ID NO: 23]
0.401 nM	0.116 nM	[Orn]F[hArg][hArg]Q[hArg]P[hArg][Cha]SHK[Sar][Oic][Nle]P[Phe(4-Cl)] [apelin polypeptide SEQ ID NO: 680]
1.14 nM	1.54 nM	[Orn]F[hArg][hArg]Q[hArg]P[hArg][Cha]SHKG[Oic][Nle][d2Nal] [apelin polypeptide SEQ ID NO: 713]
0.183 nM	0.111 nM	[Orn]F[hArg][hArg][β3hQ][hArg]P[hArg][Cha]SHKG[Oic][Nle]P[Phe(4-Cl)] [apelin polypeptide SEQ ID NO: 690]
0.879 nM	0.316 nM	[Orn]F[hArg][hArg]Q[hArg]P[hArg][Cha]SH[β3hK]G[Oic][Nle]P[Phe(4-Cl)] [apelin polypeptide SEQ ID NO: 701]
0.471 nM	0.294 nM	[Orn]F[hArg][hArg]Q[hArg]P[hArg][Cha]SHKG[Pip′][Nle]P[Phe(4-Cl)] [apelin polypeptide SEQ ID NO: 707]
0.602 nM	0.458 nM	[Orn]F[hArg][hArg]Q[hArg][β3hP][hArg][Cha]SHKG[Oic][Nle]P[Phe(4-Cl)] [apelin polypeptide SEQ ID NO: 694]
0.862 nM	0.555 nM	[Orn]F[hArg][hArg]Q[hArg]P[hArg][Cha]SHKG[Oic][Nle][β3hP][Phe(4-Cl)] [apelin polypeptide SEQ ID NO: 709]
2.67 nM	1.26 nM	[Orn]F[hArg][hArg]Q[hArg]P[hArg][Cha]SH[βAla]G[Oic][Nle]P[Phe(4-Cl)] [apelin polypeptide SEQ ID NO: 703]
1.79 nM	0.785 nM	[Orn]F[hArg][hArg]Q[hArg]P[hArg][Cha]SHKG[Oic][Nle][βAla][Phe(4-Cl)] [apelin polypeptide SEQ ID NO: 710]
0.168 nM	0.0946 nM	[Orn]F[hArg][hArg]Q[hArg]P[hArg][Cha]SHKG[Oic][Nle][Aib][Phe(4-Cl)] [apelin polypeptide SEQ ID NO: 685]
